Substitutions are numbered along the chain they refer to.
B1: Table 1 Line # 39 antibody (SP_B_cell) (antibody, human IgG4, V domains shown)
VH: EVQLVESGGDLVQPGRSLRLSCAASGFTFDDYAMYWVRQTPGKGLEWVSRITWNSGSIGYAGSVQGRFTISRDNAKNSLYLQMNSLRAEDSALYYCAKDIGGSYLGFDYWGQGTLVTVSS
VL: EIVLTQSPGTLSLSPGERVTLSCRASQSVSATYFAWYQQKPGQPPRLLIYGASNRATGIPDRFSGSGSGTDFTLTISRLEPEDFAVYYCQQNGNSYTFGQGTILEIK
B2: Table 1 Line # 22 antibody (SP_B_cell) (antibody, human IgG4, V domains shown)
VH: B1 VH with D10G, T40I, R50G, A88V, S91T, T114A
VL: B1 VL with I2T, A31S, F34L, P44A, N92Y, N94S, I103K
B3: Table 1 Line # 38 antibody (SP_B_cell) (antibody, human IgG4, V domains shown)
VH: EVHLVESGGGLAKPGGSLRLSCTASGFTFSTYNLNWVRQAPGKGLEWVSYISRSSVYIYYADSLKGRFTISRDDAKNSLYLQMNSLRAEDTAVYYCVRDDYGDYVPLDYWGQGTLVTVSS
VL: AIQMTQSPSSLSASVGDRITITCRASQGISNDLGWYQQKPGKAPKLLIFAASSLQSGVLSRFSGSGSGTDFTLTISSLQPEDVATYFCLQDYNFPRTFGQGTKVEIK
B4: Table 1 Line # 30 antibody (SP_B_cell) (antibody, human IgG4, V domains shown)
VH: EVQLVESGGGMVQPGRSLRLSCAASGFTFDDYAMHWVRQAPGKGLEWVSGIKWNGGNIGYADSVKDRFTISRDNAKNSLFLQMNSLRAEDAALYSCAKDIGGSQYALDVWGQGTTVTVSS
VL: DIQMTQSPSSLSASVGDRVTITCRASLSIGSYLNWYQKKPGKAPKLLIFVASSLQGGVSSRFSGSGSGTDFTLTISSLQPEDFATYYCQQTYSTPFTFGPGTKVDIK
B5: Table 1 Line # 48 antibody (SP_Plasma_cell) (antibody, human IgG4, V domains shown)
VH: EVQLVESGGVLVQPGRSLRLSCAASGFTFDDFAMHWVRQAPGKGLEWVSGISWNGNSIGYADSVKGRFTISRDNAKNSLYLQMNSLRTEDTALYYCAKDTSSWSYYYGMDVWGQGTTVTVSS
VL: DIQMTQSPSSLSASVGDRVTITCRASQGIRNDLGWYQQKPGKAPKRLIYAASNLQSGVPSRFSGSGSGTEFTFTISSLQPEDFATYYCLQHNSYPYTFGQGTKLEIK
B6: Table 1 Line # 33 antibody (SP_B_cell) (antibody, human IgG4, V domains shown)
VH: EVQLLESGGGLVQPGGSLRLSCAASRFTFSNYEMNWVRQAPGKGLEWLSYINTSGTTIYYADSVKGRFTISRDNAKNSLYLQMNSLRAEDTAVYYCARVNWNSDAFDIWGQGTMVTVSS
VL: EIVMTQSPATLSVSPGERATLSCRASQIVGSNLAWYHQKPGQAPRLLIYSASTRATGIPARFSGSGSGTEFTLTISSLQSEDFAVYYCQQYNNWPPFTFGPGTKVDIK
B7: Table 1 Line # 47 antibody (SP_Plasma_cell) (antibody, human IgG4, V domains shown)
VH: ELQLVESGGGLVQPGRSLRLSCAASGFPFDAYAMHWVRQAPGKGLQWVSGIRWNGGNIDYVDSVKGRFTISRDNAKNSLYLQLNSLRSEDTALYYCAKDLGGSHYALDVWGQGTMVTVSS
VL: DIQMTQSPSSLSASVGARVTITCRASQSINNDLNWYQQKPGKAPKFLIYAASSLQSGVPSRFSGRGSGTDFTLTIRSLQPEDFAVYYCQQTYSSPFTFGPGTKVDLK
B8: Table 1 Line # 50 antibody (SP_Plasma_cell) (antibody, human IgG4, V domains shown)
VH: EVKLLESGGGLVQPGGSLRLSCAASGFSFSTYAMNWVRQAPGKGLEWVSAITGSGGSTYYADSVKGRFTMSRDNSKNTLYLQMNSLRAEDTAVYYCAKDRRGAFDIGGQGTMVTVSS
VL: DIQMTQSPSSVSASVGDRVTITCRASQGISSWLAWYQQKPGKVPKFLIYAASNLQSGVPSRFSGSGSGTDFTLTISSLQPEDFATYYCQQANSFPFTFGPGTKVDIK
B9: Table 1 Line # 46 antibody (SP_Plasma_cell) (antibody, human IgG4, V domains shown)
VH: EVQLEASGGDLVQPGRSLRLSCAASGFIFDDFGMHWVRQAPGKGLEWVSGISWNGGHIGYADSVKGRFTISRDNAKNSLYLQMNSLRAEDTALYYCAKEHSSSWYGFFDFWGRGTLVTVSS
VL: DIQMTQSPSSLSASVGDRVTITCRASQGLSNSVAWYQQKPGQIPRLLISAAASLQSGVPSRFSGSGSGTDFTLTISRLQPEDVATYYCQNYNSAPRTFGQGTNVEIK
B10: Table 1 Line # 11 antibody (BM_Plasma_cell) (antibody, human IgG4, V domains shown)
VH: EVQLVESGGGLVQPGRSLRLSCAASGFTFDDYAMHWVRQAPGKGLEWVSGISWNSGSIGYADSVKGRFTISRDNAKNSLYLQMNSLRAEDTALYYCARDYSSAWYGYFDSWGQGTLVTVSS
VL: DIQMTQSPSSLSASVGDRVTITCRASQGINNYLAWYQQKPGKIPKLLIFTASTLQSGVPSRFSGSGSGTDFTLTINSLQPEDVATYYCQNYNSVPRTFGQGTKVEIK
B11: Table 1 Line # 12 antibody (BM_Plasma_cell) (antibody, human IgG4, V domains shown)
VH: QVQLVESGGGVVQPGRSLRLSCAASGFTFSSYGMHWVRQAPGKGLEWVSVISYDGSNKYYADSVKGRFTISRDNSKNTLFLQVNSLRAEDTAVYYCAKEGRTGFDYWGQGTLVTVSS
VL: B10 VL with S26R, N30S, Y36F, I43V, F49Y, T50A, N76S, N90K, V94A, R96W
B12: Table 1 Line # 15 antibody (BM_Plasma_cell) (antibody, human IgG4, V domains shown)
VH: B10 VH with G10A, T28A, S55G, G56A, I58L, V64L, A88S, Y94F, S110Y
VL: B10 VL with G28D, N30S, I43V, F49Y, T50A, N76S, E81Q
B13: Table 1 Line # 40 antibody (SP_Plasma_cell) (antibody, human IgG4, V domains shown)
VH: QVQLQESGPGLVKPSETLSLTCTISGGSISTYYWSWIRQPPGKGLEWIGYIYYSGNTNYNPSLKSRVTISVDTSKNQFSLKLNSVTAADTAVYYCARHRGSYVYGMDVWGQGTTVTVSS
VL: DIQMTQSPSSLSASLVDRVTITCRASQTISSYLNWYQQKPGKAPKLLIYGASILQSGVPSRFSGSGSGTDFTLTISSLQPEDHAVYFCQQSYSSPTFGGGTKVEIK
B14: Table 1 Line # 3 antibody (BM_Plasma_cell) (antibody, human IgG4, V domains shown)
VH: EVQLVESGGGLVQPGRSLRLSCAASGFTFDDYAMHWVRQVTGKGLEWVSGINWNSGNIGYADSVRGRFTISRDNAKNSLYLQMNSLRAEDTALYYCAKDSGSSWYGYFDLWGRGTLVTVSS
VL: DIQMTQSPSTLSASVGDRVTITCRASQSISRWLAWYQQKPGKAPKFLIYKASSLESGVPSRFSGSGSGTEFTLTISSLQPDDFATYYCQQYNSDSRTFGQGTKVEIK
B15: Table 1 Line # 49 antibody (SP_Plasma_cell) (antibody, human IgG4, V domains shown)
VH: EVHLLESGGGFIQPGGSLRLSCAASGFTFSTYAMNWVRLAPGKGLEWVSTISGSGGFTSYTDSVQGRFTISRDNSKNKLYLQINNLTAEDTAVYYCAKDRRIVGATGFDYWGQGALVTVSS
VL: DIQMTQSPSSLSASAGDRVTITCRASQSISSYLNWYQQKPGKAPKLLIYAASSLQSGVPSRFSGSGSGTDFTLTISSLQPEDSATYYCQQSYGFHTFGQGTRLEIK
B16: Table 1 Line # 53 antibody (SP_Plasma_cell) (antibody, human IgG4, V domains shown)
VH: EIQLVESGGGLVQPGRSLRLSCAASGFTFDDYAMHWVRQAPGKGLEWVSGINWNNGSLGYADSVKGRFTISRDNAKNSLYLQMNSLRTEDTALYYCVKDTGSWASYYGMDVWGHGTTVTVSS
VL: B5 VL with V15I, N53S, F73L
B17: Table 1 Line # 54 antibody (SP_Plasma_cell) (antibody, human IgG4, V domains shown)
VH: QVQLVQSGAEVKKPGASVKVSCKASGYTFTNYGISWVRQAPGQGLEWMGWISVYNGNTNYAQKLQGRVTMTTDTSTSTAYMEVRSLRSDDTAVYYCARGVNWNYVFDYWGQGTLVTVSS
VL: B5 VL with A50V, A51V, N53S, F73L, Y96W, L104V
B18: Table 1 Line # 35 antibody (SP_B_cell) (antibody, human IgG4, V domains shown)
VH: EVQLVESGGGLVKPGGSLRLSCAASGFTFSSYSMNWVRQAPGKGLEWVSSISSSSSYIYYADSVKGRFTISRDNAKNSLYLQMNSLRAEDTAVYYCARDRSSSPLENWGQGTLVTVSS
VL: B8 VL with V43A, F46L, N53S, F96I, P100Q, K103R, V104L, D105E
B19: Table 1 Line # 1 antibody (BM_Plasma_cell) (antibody, human IgG4, V domains shown)
VH: EVQLVESGGGLVKPGGSLRLSCAASGFTFSSYSMNWVRQAPGKGLEWVSSISSSSSYIYYADSVKGRFTISRDNAKNSLYLQMNSLRAEDTAVYYCASLAARPFWGQGTMVTVSS
VL: B8 VL with K42R, V43A, F46L, N53S, F96L, P100G, D105E
B20: Table 1 Line # 37 antibody (SP_B_cell) (antibody, human IgG4, V domains shown)
VH: QVHLVESGGDVVQPGRSLRLSCAASGFTFSYYGMHWVRQAPFKGLEWVAVIWYDGSNKYYADSVKGRFTITRDNSKNTVYLQMNSLRAEDTAIYYCARWGGFGVTGTHLDYWGQGTLVTVSS
VL: DIQLTQSPSLLSASVGDRVTITCWASQDIAGHFAWYQQKPGTVPKLLIYAISTLDSGVPSRFSGSRSGTEFTLTISSLQPEDFATYYCQHLNSYPYTFGQGTKLEIK
B21: Table 1 Line # 18 antibody (BM_Plasma_cell) (antibody, human IgG4, V domains shown)
VH: EVQLVQSGAEVKKPGESLKISCKGSGYRFTTNWIGWVRQMPGKGLEWMGIIYPDDSDTRYSPSFQGQVTISADKSINTAYLHWNSLKSSDTAIYYCARGANWFDPWGQGTLVTVSS
VL: EIVLTQSPGILSLSPGKRATLSCRASQSVSSNFLAWYQQKPGQAPRLLIYGTSSRANGIPDRFSGSGSGTDFTLTISGLEPEDFAEYYCQQYGSSVTFGQGTRLEIK

Biological target: human IL-4Rα (hIL-4Rα) monomeric protein (human) (UniProt P24394)
Assay: barcoded-antigen count on source cell (scRNA-seq)

Row | REGN560.L15 ab raw [counts] | Binder
1 | 3560 | B1
2 | 14000 | B2
3 | 6050 | B3
4 | 9180 | B4
5 | 1240 | B5
6 | 7340 | B6
7 | 1520 | B7
8 | 924 | B8

Biological target: human IL-6Rα (hIL-6Rα), barcoded negative control antigen (human) (UniProt P08887)
Assay: barcoded-antigen count on source cell (scRNA-seq)

Sequence of human IL-6Rα (hIL-6Rα), barcoded negative control antigen (human) (P08887 20-358 limits assumed): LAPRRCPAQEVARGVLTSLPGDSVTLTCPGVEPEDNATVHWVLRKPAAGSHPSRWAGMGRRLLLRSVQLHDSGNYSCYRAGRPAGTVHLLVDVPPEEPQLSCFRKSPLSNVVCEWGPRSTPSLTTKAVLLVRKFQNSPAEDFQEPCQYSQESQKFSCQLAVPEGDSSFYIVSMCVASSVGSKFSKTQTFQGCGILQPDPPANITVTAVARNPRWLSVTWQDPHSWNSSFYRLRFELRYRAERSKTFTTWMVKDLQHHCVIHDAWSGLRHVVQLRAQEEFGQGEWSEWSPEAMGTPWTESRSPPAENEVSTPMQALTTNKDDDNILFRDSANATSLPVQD

Row | REGN78.L15 ab raw [counts] | Binder
9 | 17 | B1
10 | 5 | B2
11 | 2 | B9
12 | 115 | B10
13 | 348 | B11
14 | 158 | B12
15 | 66 | B3
16 | 1 | B13
17 | 179 | B4
18 | 236 | B14
19 | 2 | B15
20 | 17 | B5
21 | 5 | B16
22 | 26 | B17
23 | 106 | B6
24 | 6 | B7
25 | 33 | B18
26 | 271 | B19
27 | 60 | B20
28 | 55 | B21

Reference: patent publication US20230349919A1
